From patent US8652473B2, “Antibodies to EGF receptor epitope peptides and uses thereof” (Ludwig Institute for Cancer Research Ltd., priority 2004, dated 2014)
Marks after values point to notes of the source that are not given here.

How the values were obtained:
[1] = biological target: T1, wt-EGFR (Homo sapiens, UniProt P00533); experiment: Scatchard analysis of 125I-EGF binding, BaF/3 wt-EGFR
T1 construct: […]; expressed in transfected cells
Description: (§1) Single point mutations of the wild-type EGFR were generated using a site-directed mutagenesis kit (Stratagene, La Jolla, Calif.). The template for each mutagenesis was the human EGFR cDNA; (24)) containing the leader sequence followed by a FLAG tag coding sequence, in the mammalian expression vector pcDNA3 (Invitrogen, Carlsbad, Calif.) as described in (4). The automated nucleotide sequencing of each construct was performed to confirm the integrity of each EGF receptor mutation. EGFR expression constructs were transiently expressed in 293 cells (American Type Culture Collection, Manassas, Va.) and the presence of receptor protein determined by staining with 528 and M2 antibodies to confirm expression at the cell surface and to ensure protein folding occurred appropriately (data not shown).
(§2) Wild-type and mutant EGFRs constructs were transfected into the IL-3-dependent murine hemopoietic cell line BaF/3 as described previously (25). Transfected cells were selected in G418 for 10 days. Viable cells were screened for EGFR expression by FACS analysis on a FACStar (Beckton and Dickinson, Franklin Lakes, N.J.) using antibodies to the flag tag (M2: 10 μg/ml in PBS/5% FCS/5 mMEDTA) and/or to the EGFR extracellular domain (mAb528: 10 μg/ml in PBS/5% FCS/5 mMEDTA) followed by Alexa 488-labelled anti-mouse Ig (1:400 final dilution). Background fluorescence was determined by incubating the cells with an irrelevant, class matched primary antibody. Positive pools were sorted for the appropriate level of EGFR expression on a FACS-DIVA (Becton and Dickinson). After final selection, mRNA was isolated from each cell line and all mutations in the EGFR were confirmed by PCR annalysis. All cells were routinely passaged in RPMI/10% FCS/10% WEHI3B conditioned medium (26) and 1.5 mg/ml G418.
(§3) Murine EGF, purified from mouse submaxillary glands (27), was iodinated using Iodogen (28) to a specific activity of 5-8×10^5 cpm/pmol. Ligand binding to cells expressing the wt or mutant EGFR was determined at room temperature in the presence of the […] (PAO) (29) by cold saturation experiments. Briefly, cells were incubated in PBS/1% BSA/30 μM PAO with or without increasing amounts of unlabelled EGF (20 pM-5.12 nM) and with a constant amount (300 pM) of ^125I EGF. Non-specific binding was determined using a 500-fold excess of unlabelled EGF over ^125I-EGF. All experimental points were prepared in triplicate. At the end of the incubation, the cells were pelleted and washed twice in ice-cold PBS before transferring to fresh tubes for counting in a Wallac WIZARD γ-counter (PerkinElmer, Boston, Mass.). Scatchard plots and estimates of ligand binding affinities and receptor numbers were obtained using the Radlig program (BioSoft, Cambridge, UK).

[2] = biological target: T2, Y^246F EGFR (Homo sapiens, UniProt P00533, Y270F); experiment: Scatchard analysis of 125I-EGF binding, BaF/3 Y246F; conditions: BaF/3 Y^246F
T2 construct: expressed in transfected cells
Description: as §1
as §2, with “All cells were routinely passaged in RPMI/10% FCS/10% WEHI3B conditioned medium (26) and 1.5 mg/ml G418.” left out
(§4) Murine EGF, purified from mouse submaxillary glands (27), was iodinated using Iodogen (28) to a specific activity of 5-8×10^5 cpm/pmol. Ligand binding to cells expressing the wt or mutant EGFR was determined at room temperature in the presence of the […] […] Non-specific binding was determined using a 500-fold excess of unlabelled EGF over ^125I-EGF. […]

[3] = biological target: T3, Y^246W EGFR (Homo sapiens, UniProt P00533, Y270W); experiment: Scatchard analysis of 125I-EGF binding, BaF/3 Y246W; conditions: BaF/3 Y^246W
T3 construct: expressed in transfected cells
Description: as §1
as §2, with “All cells were routinely passaged in RPMI/10% FCS/10% WEHI3B conditioned medium (26) and 1.5 mg/ml G418.” left out
as §4

[4] = biological target: T4, Y^246D EGFR (Homo sapiens, UniProt P00533, Y270D); experiment: Scatchard analysis of 125I-EGF binding, BaF/3 Y246D; conditions: BaF/3 Y^246D
T4 construct: expressed in transfected cells
Description: as §1
as §2, with “All cells were routinely passaged in RPMI/10% FCS/10% WEHI3B conditioned medium (26) and 1.5 mg/ml G418.” left out
as §4

[5] = biological target: T5, V^583D EGFR (Homo sapiens, UniProt P00533, V607D); experiment: Scatchard analysis of 125I-EGF binding, BaF/3 V583D; conditions: BaF/3 V^583D
T5 construct: expressed in transfected cells
Description: as §1, §2, §3

[6] = biological target: T6, D^563H EGFR (Homo sapiens, UniProt P00533, D587H); experiment: Scatchard analysis of 125I-EGF binding, BaF/3 D563H; conditions: BaF/3 D^563H
T6 construct: expressed in transfected cells
Description: as §1, §2, §3

[7] = biological target: T7, E^578C EGFR (Homo sapiens, UniProt P00533, E602C); experiment: Scatchard analysis of 125I-EGF binding, BaF/3 E578C; conditions: BaF/3 E^578C
T7 construct: expressed in transfected cells
Description: as §1
(§5) Wild-type and mutant EGFRs constructs were transfected into the IL-3-dependent murine hemopoietic cell line BaF/3 as described previously (25). […] Background fluorescence was determined by incubating the cells with an irrelevant, class matched primary antibody. […]
as §4

[8] = biological target: T8, L^245C/E^578C EGFR (Homo sapiens, UniProt P00533, E602C/L269C); experiment: Scatchard analysis of 125I-EGF binding, BaF/3 L245C/E578C; conditions: BaF/3 L^245C/E^578C; less than 10% of number by FACS or immunoblotting
T8 construct: expressed in transfected cells
Description: as §1, §5, §4

[9] = high affinity sites, listed as 125I-EGF

R/cell (from Bmax) [1]: 3.4 +/− 0.7 R/cell × 10^−4
[EGF] at which 500R/cell are occupied ([1]; calculated from Kd and Bmax): ~15 pM
% of sites (Kd1) [1, 9]: 2.6 +/− 0.4%
% of sites (Kd2) ([1]; low affinity sites): 97.5 +/− 0.49%
% of sites (Kd2) [2]: (100) %
R/cell (from Bmax) [2]: 3.0 +/− 0.2 R/cell × 10^−4
[EGF] at which 500R/cell are occupied ([2]; calculated from Kd and Bmax): 30 pM
% of sites (Kd2) [3]: (100) %
R/cell (from Bmax) [3]: 2.9 +/− 0.2 R/cell × 10^−4
[EGF] at which 500R/cell are occupied ([3]; calculated from Kd and Bmax): ~60 pM
% of sites (Kd2) [4]: (100) %
R/cell (from Bmax) [4]: 1.2 +/− 0.1 R/cell × 10^−4
[EGF] at which 500R/cell are occupied ([4]; calculated from Kd and Bmax): 400 pM
R/cell (from Bmax) [5]: 3.8 +/− 0.71 R/cell × 10^−4
[EGF] at which 500R/cell are occupied ([5]; calculated from Kd and Bmax): <1 pM
% of sites (Kd1) [5, 9]: 12.6 +/− 4%
% of sites (Kd2) ([5]; low affinity sites): 90.8 +/− 1.9%
R/cell (from Bmax) [6]: 2.3 +/− 0.8 R/cell × 10^−4
[EGF] at which 500R/cell are occupied ([6]; calculated from Kd and Bmax): 8 pM
% of sites (Kd1) ([6]; high affinity sites): 4.4 +/− 0.7) %
% of sites (Kd2) ([6]; low affinity sites): 96.4 +/− 0.7%
R/cell (from Bmax) [7]: 3.45 +/− 0.12 R/cell × 10^−4
[EGF] at which 500R/cell are occupied ([7]; calculated from Kd and Bmax): ~80 pM
R/cell (from Bmax) [8]: 0.37 +/− 0.002^b R/cell × 10^−4
Substance: EGF: Murine EGF purified from mouse submaxillary glands, iodinated for binding; EGFR ligand
